Data reported in patent US20160310583A1 (SUMITOMO DAINIPPON PHARMA, published 2016).

B1: FAM83B-derived peptide F231_10 (peptide)
peptide: FLLVDCQKVM
B2: FAM83B-derived peptide F55_11 (peptide)
peptide: FLAEEEINYIL
B3: FAM83B-derived peptide F149_10 (peptide)
peptide: VIALVMDIFT
B4: FAM83B-derived peptide F594_9 (peptide)
peptide: PLPESIPKL
B5: FAM83B-derived peptide F971_9 (peptide)
peptide: SYGRSSPLL
B6: FAM83B-derived peptide F276_11 (peptide)
peptide: LYARSCVPSSF
B7: FAM83B-derived peptide F148_10 (peptide)
peptide: KVIALVMDIF
B8: FAM83B-derived peptide F46_11 (peptide)
peptide: FLVQERVSDFL
B9: FAM83B-derived peptide F466_11 (peptide)
peptide: SFNGTDNHIRF
B10: FAM83B-derived peptide F305_9 (peptide)
peptide: TYQHSVSSL
B11: FAM83B-derived peptide F238_13 (peptide)
peptide: KVMYGSYSYMWSF
B12: FAM83B-derived peptide F153_11 (peptide)
peptide: VMDIFTDVDIF
B13: FAM83B-derived peptide F18_10 (peptide)
peptide: NYIEPHYKEW
B14: FAM83B-derived peptide F335_11 (peptide)
peptide: SYFKNRGIYTL
B15: FAM83B-derived peptide F176_10 (peptide)
peptide: VYILLDESNF
B16: FAM83B-derived peptide F239_10 (peptide)
peptide: VMYGSYSYMW
B17: FAM83B-derived peptide F27_10 (peptide)
peptide: WYRVAIDILI
B18: FAM83B-derived peptide F939_9 (peptide)
peptide: PFCKIESSI
B19: FAM83B-derived peptide F107_10 (peptide)
peptide: GWPYVMPGLL
B20: FAM83B-derived peptide F47_10 (peptide)
peptide: LVQERVSDFL
B21: FAM83B-derived peptide SF_9 (peptide)
peptide: SYQPNENKF
notes: also called FAM83B peptide

Molecular target: T1, HLA-A*02:01 (human)
T1 construct: whole, on cells; MHC class I molecule, empty until peptide is added; detected with FITC anti-HLA-A02 antibody BB7.2
Assay: MHC class I stabilization on T2-A24 cells, flow cytometry, 100 ug/mL peptide

Row | Binder | MFI (solvent ratio)
1 | B1 | ≥ 1.5 ratio to solvent
2 | B2 | ≥ 1.5 ratio to solvent

Molecular target: T2, HLA-A*24:02 (human)
T2 construct: whole, on cells; MHC class I molecule, empty until peptide is added; detected with FITC anti-HLA-A24 antibody 17A10
Assay: as above

Row | Binder | MFI (solvent ratio)
3 | B3 | ≥ 1.5 ratio to solvent
4 | B4 | ≥ 1.5 ratio to solvent
5 | B5 | ≥ 1.5 ratio to solvent
6 | B6 | ≥ 1.5 ratio to solvent
7 | B7 | ≥ 1.5 ratio to solvent
8 | B8 | ≥ 1.5 ratio to solvent
9 | B9 | ≥ 1.5 ratio to solvent
10 | B10 | ≥ 1.5 ratio to solvent
11 | B11 | ≥ 1.5 ratio to solvent
12 | B12 | ≥ 1.5 ratio to solvent
13 | B13 | ≥ 1.5 ratio to solvent
14 | B14 | ≥ 1.5 ratio to solvent
15 | B15 | ≥ 1.5 ratio to solvent
16 | B16 | ≥ 1.5 ratio to solvent
17 | B17 | ≥ 1.5 ratio to solvent
18 | B18 | ≥ 1.5 ratio to solvent
19 | B19 | ≥ 1.5 ratio to solvent
20 | B20 | ≥ 1.5 ratio to solvent
21 | B21 | ≥ 1.5 ratio to solvent

Molecular target: T1, HLA-A*02:01
Assay: as above
Remark: another data set of the same source

Row | Binder | MFI (solvent ratio)
22 | B3 | 1.3 ratio to solvent
23 | B5 | 1.1 ratio to solvent
24 | B6 | 1.2 ratio to solvent
25 | B7 | 1.1 ratio to solvent
26 | B9 | 1 ratio to solvent
27 | B10 | 1.1 ratio to solvent
28 | B11 | 1.2 ratio to solvent
29 | B12 | 0.9 ratio to solvent
30 | B13 | 1 ratio to solvent
31 | B14 | 1 ratio to solvent
32 | B15 | 1.2 ratio to solvent
33 | B16 | 1.1 ratio to solvent
34 | B17 | 1.2 ratio to solvent
35 | B1 | 2 ratio to solvent
36 | B18 | 0.9 ratio to solvent
37 | B19 | 1 ratio to solvent
38 | B20 | 1.1 ratio to solvent
39 | B21 | 1 ratio to solvent
40 | B2 | 3.6 ratio to solvent

Molecular target: T2, HLA-A*24:02
Assay: as above
Remark: another data set of the same source

Row | Binder | MFI (solvent ratio)
41 | B3 | 2.1 ratio to solvent
42 | B4 | 3.8 ratio to solvent
43 | B5 | 1.8 ratio to solvent
44 | B6 | 3.4 ratio to solvent
45 | B7 | 2.6 ratio to solvent
46 | B8 | 1.6 ratio to solvent
47 | B9 | 1.7 ratio to solvent
48 | B10 | 2.4 ratio to solvent
49 | B11 | 5.1 ratio to solvent
50 | B12 | 2 ratio to solvent
51 | B13 | 3.2 ratio to solvent
52 | B14 | 2.3 ratio to solvent
53 | B15 | 2.7 ratio to solvent
54 | B16 | 2.2 ratio to solvent
55 | B17 | 3.2 ratio to solvent
56 | B1 | 1 ratio to solvent
57 | B18 | 2.7 ratio to solvent
58 | B19 | 2.7 ratio to solvent
59 | B20 | 1.5 ratio to solvent
60 | B21 | 2.3 ratio to solvent
61 | B2 | 1 ratio to solvent
